Results as given in patent US20150368300A1, “COMPOSITIONS AND METHODS RELATING TO […] DOT1L RECRUITMENT BY MLL-FUSION PROTEINS” (published 2015).
Where no end group is shown, it is not given here. fluorescein = fluorescein label, coupled through a lysine and two β-alanine spacer

What was measured:
[1] = biological target: T1, MBP-ENL (489-559) (Homo sapiens (Human)) (UniProt Q03111); assay: FP saturation; 10 nM Flu-DOT1L titrated with MBP-ENL
T1 sequence: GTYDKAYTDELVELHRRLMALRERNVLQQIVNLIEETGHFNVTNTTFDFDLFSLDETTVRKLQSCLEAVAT

[2] = biological target: T2, GB1-AF9 (497-568) (human) (UniProt P42568); assay: FP saturation; 10 nM Flu-DOT1L titrated with GB1-AF9
T2 sequence: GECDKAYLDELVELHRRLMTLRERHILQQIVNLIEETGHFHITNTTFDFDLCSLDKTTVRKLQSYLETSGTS

[3] = biological target: T2, GB1-AF9 (497-568) (human); assay: FP saturation; 5 nM labeled peptide titrated with GB1-AF9
[4] = biological target: T2, GB1-AF9 (497-568) (human); assay: competitive FP; displacement of Flu-DOT1L from GB1-AF9
[5] = biological target: T3, AF9 (497-568), recombinant C-terminal domain of human AF9 (human, UniProt P42568); assay: competitive SPR; peptide pre-incubated with AF9 (500 nM), over immobilised Mocr-DOT1L (826-1095)
[6] = biological target: T4, ENL (489-559), recombinant C-terminal domain of ENL (Homo sapiens (Human), UniProt Q03111); assay: competitive SPR; peptide pre-incubated with ENL (500 nM), over immobilised Mocr-DOT1L (826-1095)
T4 sequence: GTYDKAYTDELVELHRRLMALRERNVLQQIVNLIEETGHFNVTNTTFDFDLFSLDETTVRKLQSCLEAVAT
Protocol: Solution competitive SPR based assay was performed to determine the IC₅₀ values of DOT1L peptides. […] IC₅₀ values were determined by non-linear least squares analysis using Graph Pad Prism 5.0 software.

[7] = biological target: Flag-tagged full length human DOT1L protein, DOT1L (1-1537) (human) (UniProt Q8TEK3); assay: SPR; Flag-DOT1L captured on anti-Flag CM5 chip, AF9 as analyte
[8] = biological target: DOT1L (925-1095) (human) (UniProt Q8TEK3); assay: SPR; DOT1L (925-1095) immobilised, compared with the longer constructs
[9] = biological target: Flag-tagged full length human DOT1L protein, DOT1L (1-1537) (human) (UniProt Q8TEK3); assay: SPR; full length Flag-DOT1L captured on chip
[10] = biological target: DOT1L (854-1095) (human) (UniProt Q8TEK3); assay: SPR; DOT1L construct immobilised on CM5 chip
[11] = biological target: T5, DOT1L (854-925) (human) (UniProt Q8TEK3); assay: SPR; DOT1L construct immobilised on CM5 chip
T5 sequence: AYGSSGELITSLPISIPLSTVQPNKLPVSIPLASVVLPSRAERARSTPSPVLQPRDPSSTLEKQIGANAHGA

[12] = biological target: DOT1L (925-1095) (human) (UniProt Q8TEK3); assay: SPR; DOT1L construct immobilised on CM5 chip
[13] = biological target: T6, DOT1L (826-937) (human) (UniProt Q8TEK3); assay: SPR; DOT1L construct immobilised on CM5 chip
T6 sequence: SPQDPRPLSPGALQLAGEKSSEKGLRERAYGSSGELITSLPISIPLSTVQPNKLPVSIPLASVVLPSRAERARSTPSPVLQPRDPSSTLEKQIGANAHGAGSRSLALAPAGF

[14] = biological target: Mocr-DOT1L (826-1095) (human) (UniProt Q8TEK3); assay: SPR; DOT1L construct immobilised on CM5 chip
[15] = biological target: T7, DOT1L (826-958) (human) (UniProt Q8TEK3); assay: SPR; DOT1L construct immobilised on CM5 chip
T7 sequence: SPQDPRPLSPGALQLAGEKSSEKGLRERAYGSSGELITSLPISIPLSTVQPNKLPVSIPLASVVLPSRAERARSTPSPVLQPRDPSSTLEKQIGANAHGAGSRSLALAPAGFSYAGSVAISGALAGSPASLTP

[16] = biological target: Mocr-DOT1L (826-1095) (human) (UniProt Q8TEK3); assay: SPR; Mocr-DOT1L (826-1095) immobilised
[17] = biological target: T1, MBP-ENL (489-559) (Homo sapiens (Human)); assay: ITC; peptide (400 µM) into MBP-ENL (489-559) (80 µM)
[18] = biological target: T2, GB1-AF9 (497-568) (human); assay: competitive FP; displacement of N-Flu-DOT1L from GB1-AF9
[19] = biological target: T1, MBP-ENL (489-559) (Homo sapiens (Human)); assay: ITC; peptide (500 µM) into MBP-ENL (110 µM)
[20] = biological target: T3, AF9 (497-568), recombinant C-terminal …; assay: competitive SPR
[21] = biological target: T4, ENL (489-559), recombinant C-terminal …; assay: competitive SPR
[22] = biological target: T1, MBP-ENL (489-559) (Homo sapiens (Human)); assay: ITC
[23] = biological target: Flag-tagged full length human DOT1L protein, DOT1L (1-1537) (human) (UniProt Q8TEK3); assay: SPR; Flag-DOT1L captured on anti-Flag CM5 chip, ENL as analyte

B1: N-Flu-DOT1L, fluorescein-labeled DOT1L 10-mer peptide (N-terminal label) (peptide)
peptide: LPISIPLSTV-NH2
modifications: not fully specified (N-terminus)
[1]
  Kd: 495 nM
[2]
  Kd: 65 nM
[3]
  Kd: 95 nM

B2: AF4 recombinant protein (749-775 residues) (peptide)
chain: LSPLRDTPPPQSLMVKITLDLLSRIPQ
[4]
  IC50: 560 nM

B3: L865A, alanine mutated DOT1L 10mer peptide (peptide)
peptide: Ac-APISIPLSTV-NH2
[5]
  IC50: 98500 nM
[6]
  IC50: 27500 nM

B4: C-Flu-DOT1L, fluorescently labeled DOT1L-10 mer peptide (C-terminal label) (peptide)
peptide: Ac-LPISIPLSTV-fluorescein
modifications: also: C-terminal fluorescein label, attachment not given here
[3]
  Kd: 127 nM

B5: I869A, alanine mutated DOT1L 10mer peptide (peptide)
peptide: Ac-LPISAPLSTV-NH2
[5]
  IC50: > 200000 nM
[6]
  IC50: > 200000 nM

B6: AF9 (497-568), recombinant C-terminal domain of human AF9 (protein)
chain: GECDKAYLDELVELHRRLMTLRERHILQQIVNLIEETGHFHITNTTFDFDLCSLDKTTVRKLQSYLETSGTS
[7]
  Kd: 33 nM
[8]
  fold decrease in binding affinity: 50 fold
[9]
  fold higher affinity (AF9 against ENL): 6 fold
[10]
  Kd: 135 nM
[11]
  Kd: 42 nM
[12]
  Kd: 1820 nM
[13]
  Kd: 78 nM
[14]
  Kd: 111 nM
[15]
  Kd: 92 nM

B7: DOT1L 16 mer peptide, Ac-LPISIPLSTVQPNKLP-NH2 (a.a. 865-880) (peptide)
peptide: Ac-LPISIPLSTVQPNKLP-NH2
[5]
  IC50: 320 nM
[6]
  IC50: 1560 nM

B8: ENL H2 (523-559) (peptide)
chain: EETGHFNVTNTTFDFDLFSLDETTVRKLQSCLEAVAT
[16]
  Kd: 14600 nM
  fold decrease in binding affinity against the intact ENL C-terminal domain: 30 fold

B9: DOT1L 16 mer peptide, Ac-…-NH2 (a.a. 865-880) (peptide)
peptide: Ac-LPISIPLSTVQPNKLP-NH2
[17]
  Kd: 900 nM
[18]
  Ki: 80 nM

B10: DOT1L 7 mer peptide, Ac-LPISIPL-NH2 (865-871) (peptide)
peptide: Ac-LPISIPL-NH2
[19]
  Kd: 3400 nM
[5]
  IC50: 3900 nM
[6]
  IC50: 7300 nM
[20]
  fold reduction in binding against the 10-mer peptide: 8 fold
[21]
  fold reduction in binding against the 10-mer peptide: 5 fold
[22]
  fold lower affinity against the 16-mer and 10-mer DOT1L peptides: 3 fold

B11: S872A, alanine mutated DOT1L 10mer peptide (peptide)
peptide: Ac-LPISIPLATV-NH2
[5]
  IC50: 550 nM
[6]
  IC50: 2800 nM

B12: I867A, alanine mutated DOT1L 10mer peptide (peptide)
peptide: Ac-LPASIPLSTV-NH2
[5]
  IC50: 57200 nM
[6]
  IC50: > 200000 nM

B13: ENL (489-559), recombinant C-terminal domain of ENL (protein)
chain: GTYDKAYTDELVELHRRLMALRERNVLQQIVNLIEETGHFNVTNTTFDFDLFSLDETTVRKLQSCLEAVAT
[8]
  fold decrease in binding affinity: 30 fold
[23]
  Kd: 206 nM
[10]
  Kd: 148 nM
[11]
  Kd: 90 nM
[12]
  Kd: 6220 nM
[13]
  Kd: 81 nM
[14]
  Kd: 238 nM
[15]
  Kd: 122 nM

B14: V874A, alanine mutated DOT1L 10mer peptide (peptide)
peptide: Ac-LPISIPLSTA-NH2
[5]
  IC50: 700 nM
[6]
  IC50: 4200 nM

B15: AF4 14 mer peptide, Ac-…-NH2 (peptide)
peptide: Ac-LMVKITLDLLSRIP-NH2
[4]
  IC50: 280 nM

B16: ENL H1 (489-544) (protein)
chain: GTYDKAYTDELVELHRRLMALRERNVLQQIVNLIEETGHFNVTNTTFDFDLFSLDE
[16]
  Kd: 2800 nM
  fold decrease in binding affinity against the intact ENL C-terminal domain: 10 fold

B17: S868A, alanine mutated DOT1L 10mer peptide (peptide)
peptide: Ac-LPIAIPLSTV-NH2
[5]
  IC50: 5300 nM
[6]
  IC50: 29100 nM

B18: T873A, alanine mutated DOT1L 10mer peptide (peptide)
peptide: Ac-LPISIPLSAV-NH2
[5]
  IC50: 58 nM
[6]
  IC50: 360 nM
[18]
  Ki: 203 nM

B19: DOT1L 10mer peptide, Ac-…-NH2 (a.a. 865-874) (peptide)
peptide: Ac-LPISIPLSTV-NH2
[17]
  Kd: 1100 nM
[18]
  Ki: 68 nM

B20: AF4 14 mer peptide, Ac-LMVKITLDLLSRIP-NH2 (peptide)
peptide: Ac-LMVKITLDLLSRIP-NH2
[5]
  IC50: 200 nM
[6]
  IC50: 430 nM

B21: L871A, alanine mutated DOT1L 10mer peptide (peptide)
peptide: Ac-LPISIPASTV-NH2
[5]
  IC50: 30700 nM
[6]
  IC50: 147000 nM

B22: P866A, alanine mutated DOT1L 10mer peptide (peptide)
peptide: Ac-LAISIPLSTV-NH2
[5]
  IC50: 3300 nM
[6]
  IC50: 6500 nM

B23: DOT1L 10mer peptide, Ac-LPISIPLSTV-NH2 (a.a. 865-874) (peptide)
peptide: Ac-LPISIPLSTV-NH2
[5]
  IC50: 490 nM
[6]
  IC50: 1340 nM

B24: P870A, alanine mutated DOT1L 10mer peptide (peptide)
peptide: Ac-LPISIALSTV-NH2
[5]
  IC50: 2800 nM
[6]
  IC50: 11600 nM
